Data taken from the Immune Epitope Database (IEDB).

Tests used:
[1] = target: HLA-A*26:01; experiment: IEDB peptide-MHC binding, purified MHC/competitive/radioactivity; filed as Kd, often an IC50 or EC50 that approximates it; ≥ and ≤ were set here for values at or beyond the usual limits of such assays
[2] = target: HLA-A*01:01; experiment: as above
[3] = target: HLA-A*30:01; experiment: as above
[4] = target: HLA-B*08:01; experiment: as above
[5] = target: HLA-A*26:01; experiment: IEDB peptide-MHC binding, purified MHC/direct/fluorescence; filed as Kd, often an IC50 or EC50 that approximates it; ≥ and ≤ were set here for values at or beyond the usual limits of such assays
[6] = target: HLA-A*02:06; experiment: IEDB peptide-MHC binding, purified MHC/competitive/radioactivity; filed as Kd, often an IC50 or EC50 that approximates it; ≥ and ≤ were set here for values at or beyond the usual limits of such assays; settings: source organism: Dengue virus 2 Jamaica/1409/1983
[7] = target: HLA-A*02:01; experiment: as above
[8] = target: HLA-B*51:01; experiment: as above; settings: source organism: Dengue virus 1 Brazil/97-11/1997
[9] = target: HLA-A*30:02; experiment: as above; settings: source organism: Dengue virus 4 Philippines/H241/1956
[10] = target: HLA-B*44:02; experiment: as above
[11] = target: HLA-B*44:03; experiment: as above
[12] = target: HLA-A*02:01; experiment: IEDB peptide-MHC binding, purified MHC/competitive/fluorescence; ≥ and ≤ were set here for values at or beyond the usual limits of such assays
[13] = target: HLA-A*24:02; experiment: as above
[14] = target: HLA-A*33:01; experiment: IEDB peptide-MHC binding, purified MHC/competitive/radioactivity; filed as Kd, often an IC50 or EC50 that approximates it; ≥ and ≤ were set here for values at or beyond the usual limits of such assays
[15] = target: HLA-B*40:01; experiment: as above
[16] = target: HLA-A*03:01; experiment: IEDB peptide-MHC binding, purified MHC/direct/fluorescence; filed as Kd, often an IC50 or EC50 that approximates it; ≥ and ≤ were set here for values at or beyond the usual limits of such assays; settings: source organism: Haemophilus influenzae
[17] = target: HLA-A*31:01; experiment: as above; settings: source organism: Haemophilus influenzae
[18] = target: HLA-B*15:01; experiment: as above; settings: source organism: Haemophilus influenzae
[19] = target: HLA-B*53:01; experiment: IEDB peptide-MHC binding, purified MHC/competitive/radioactivity; filed as Kd, often an IC50 or EC50 that approximates it; ≥ and ≤ were set here for values at or beyond the usual limits of such assays; settings: source organism: Dengue virus 2 Jamaica/1409/1983
[20] = target: HLA-A*23:01; experiment: as above; settings: source organism: Dengue virus 4 Thailand/0348/1991
[21] = target: HLA-A*24:02; experiment: as above; settings: source organism: Dengue virus 4 Thailand/0348/1991
[22] = target: HLA-A*03:01; experiment: as above; settings: source organism: Vaccinia virus WR
[23] = target: HLA-A*11:01; experiment: as above; settings: source organism: Vaccinia virus WR
[24] = target: HLA-A*31:01; experiment: as above; settings: source organism: Vaccinia virus WR
[25] = target: HLA-A*68:01; experiment: as above; settings: source organism: Vaccinia virus WR
[26] = source organism: Dengue virus 3 Martinique/1243/1999
[27] = source organism: Dengue virus 4 Philippines/H241/1956
[28] = source organism: Vaccinia virus WR
[29] = source organism: Dengue virus 2 Jamaica/1409/1983
[30] = source organism: Dengue virus 1 Brazil/97-11/1997
[31] = source organism: Sudan ebolavirus
[32] = source organism: Dengue virus 3 Singapore/8120/1995
[33] = source organism: Zaire ebolavirus

## TVIEHLERL
[1]; [26]
  Kd: 81.1 nM

## NTSANLSLA
[2]; [27]
  Kd: 1350 nM

## STANVSLAA
[2]; [26]
  Kd: 2030 nM

## SVKCQSPPS
[3]; [28]
  Kd: 16.8 nM

## ISKVRSNAA
[3]; [27]
  Kd: 712 nM
[4]; [27]
  Kd: 7.31 nM

## EGINELGAM
[5]; source organism: Vibrio vulnificus CMCP6
  Kd: 48 nM

## RTLRVLNLV
[6]
  Kd: 10.2 nM
[3]; [29]
  Kd: 222 nM

## HTIENTSAN
[1]; [27]
  Kd: 4840 nM

## WLVSNGSYL
[7]; source organism: Lassa virus Josiah
  Kd: 1790 nM

## IAFLRFLAI
[4]; [30]
  Kd: 1.26 nM
[8]
  Kd: 9.53 nM

## PSSVAARGY
[2]; [27]
  Kd: 200 nM
[9]
  Kd: 3230 nM

## TEMGRLPTFM
[10]; [29]
  Kd: 11.6 nM
[11]; [29]
  Kd: 167 nM

## TVTGILGSL
[12]; [31]
  IC50: 22500 nM
[13]; [31]
  IC50: ≥ 76800 nM

## VLLGVKLSGV
[7]; source organism: Homo sapiens
  Kd: 4.7 nM

## SIHEKFWPL
[4]; [28]
  Kd: 1.36 nM

## EVKTCIWPK
[3]; [30]
  Kd: 1350 nM
[14]; [30]
  Kd: 2.82 nM

## KEEHSSTWHY
[10]; [32]
  Kd: 42.2 nM
[11]; [32]
  Kd: 205 nM

## AVPSHWVPTS
[3]; [29]
  Kd: 15000 nM

## KRSLRPQPTE
[3]; [29]
  Kd: 3690 nM

## MTDTTPFGQ
[2]; [27]
  Kd: 3770 nM

## QEVPFCSHHF
[15]; [27]
  Kd: 4870 nM
[10]; [27]
  Kd: 12.2 nM
[11]; [27]
  Kd: 180 nM

## EVADRILFM
[5]; source organism: Bacillus cereus AH1134
  Kd: 3 nM

## ILKEHVSRY
[16]
  Kd: 3180 nM
[17]
  Kd: 5580 nM
[18]
  Kd: 531 nM

## RTKITSLPL
[3]; [28]
  Kd: 0.0866 nM

## EPIPMSTYGW
[1]; [29]
  Kd: ≥ 40500 nM
[19]
  Kd: 334 nM

## AFKVRPTFA
[3]; [29]
  Kd: 52.1 nM

## EEYVDYMPV
[15]; [27]
  Kd: 190 nM

## ELMMATIGIA
[1]; [29]
  Kd: 65 nM

## KRDGVKRLE
[13]; [33]
  IC50: ≥ 173000 nM

## GEKKKLRPRW
[10]; [26]
  Kd: 342 nM
[11]; [26]
  Kd: 2600 nM

## DRERLKVFL
[13]; source organism: Variola virus
  IC50: ≥ 169000 nM

## VWIEDNPNMI
[20]
  Kd: 472 nM
[21]
  Kd: 546 nM

## YWPVMNHKN
[13]; [33]
  IC50: 7120 nM

## SGVLWDTPSP
[3]; [30]
  Kd: ≥ 70400 nM

## PVYQVNNLE
[13]; [33]
  IC50: ≥ 100000 nM

## METLLLLGLM
[15]; [26]
  Kd: 1020 nM
[10]; [26]
  Kd: 62.4 nM
[11]; [26]
  Kd: 2650 nM

## CLPAAPDGI
[12]; [33]
  IC50: 3840 nM
[13]; [33]
  IC50: 37400 nM

## KFRPGSLIY
[22]
  Kd: ≥ 21300 nM
[23]
  Kd: ≥ 58400 nM
[3]; [28]
  Kd: 0.303 nM
[24]
  Kd: 11300 nM
[14]; [28]
  Kd: ≥ 77700 nM
[25]
  Kd: ≥ 77700 nM

## PLEEELPR
[7]; source organism: Hepatitis B virus
  Kd: ≥ 25000 nM

## RYVHKVSGT
[12]; [33]
  IC50: ≥ 90900 nM
[13]; [33]
  IC50: 6660 nM

## AERTGEPDY
[10]; [27]
  Kd: 391 nM
[11]; [27]
  Kd: 851 nM

## LFQKAFSMP
[13]; [31]
  IC50: 2780 nM

## IVRDSMWYI
[3]; source organism: Vaccinia virus Copenhagen
  Kd: 19.7 nM
